Positions count from the first letter of the chain named. Names may count otherwise. “And” between values parts separate entries of the source, which are not always exact repeats. Equal entries are not always repeated.

The target of test [1] is T1, recombinant E. coli-expressed human IL-13 (human, UniProt P35225 35-146).
T1 construct: made and purified at GSK; also called Interleukin-13; rhIL-13
Description: SPR. (In general: Surface plasmon resonance follows binding to a sensor surface in real time, without labels.)

Test [2] concerns the target T2, recombinant E. coli-expressed human IL-4 (human, UniProt P05112 25-153).
T2 construct: made and purified at GSK; also called Interleukin-4; rhIL-4
T2 sequence: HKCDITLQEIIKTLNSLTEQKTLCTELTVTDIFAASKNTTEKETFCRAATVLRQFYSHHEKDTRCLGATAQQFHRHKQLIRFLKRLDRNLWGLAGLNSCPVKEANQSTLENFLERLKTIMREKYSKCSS
As to the kind of experiment: ELISA, IL-4 binding to IL4Ralpha-Fc. Background: ELISA stands for enzyme-linked immunosorbent assay.

Test [3] concerns the target T1, recombinant E. coli-expressed human …. As to the kind of experiment: SPR. The source holds these as a separate data set.
Test [4] deals with T2, recombinant E. coli-expressed human IL-4. As to the kind of experiment: ELISA.
Test [5] addresses T1, recombinant E. coli-expressed human …. As to the kind of experiment: SPR exp 1.
Test [6] has as its target T2, recombinant E. coli-expressed human IL-4. Description: SPR exp 1.
Test [7] has the same target. As to the kind of experiment: SPR stoichiometry.
For test [8], the target named is T1, recombinant E. coli-expressed human …. As to the kind of experiment: SPR stoichiometry.
Test [9] deals with T2, recombinant E. coli-expressed human IL-4. Description: SPR, purified.
The target in test [10] is T1, recombinant E. coli-expressed human …. Description: SPR, purified.
Test [11] deals with T3, recombinant E. coli-expressed cynomolgus IL-13 (cynomolgus, UniProt Q0PW92 21-132).
T3 construct: also called cyno IL-13
Description: SPR.

Test [12] deals with T4, recombinant E. coli-expressed cynomolgus IL-4 (cynomolgus, UniProt P79339 25-153).
T4 construct: also called cyno IL-4
T4 sequence (looked up): T2 sequence with E26K, V29I, F33L
Description: SPR.

In test [13] the target is T1, recombinant E. coli-expressed human …. Description: SPR exp 2.
The target in test [14] is T2, recombinant E. coli-expressed human IL-4. Description: SPR exp 2.
Test [15] deals with T1, recombinant E. coli-expressed human …. Description: SPR. The source holds these as a separate data set.
The target in another test is T5, recombinant human VEGF (human, UniProt P15692-4 27-191).
T5 construct: also called VEGF165; hVEGF165
Description: ELISA.

B1: BPC1609 (bispecific antibody, human IgG1, kappa)
heavy: not shown
light: DIVMTQSPLSLPVTPGEPASISCRSSQNIVHINGNTYLEWYLQKPGQSPRLLIYKISDRFSGVPDRFSGSGSGTDFTLKISRVEADDVGIYYCFQGSHVPWTFGQGTKLEIKRTVAAPSVFIFPPSDEQLKSGTASVVCLLNNFYPREAKVQWKVDNALQSGNSQESVTEQDSKDSTYSLSSTLTLSKADYEKHKVYACEVTHQGLSSPVTKSFNRGEC
In general, Kd refers to the equilibrium constant for the complex coming apart. Consider B1, for which the Kd in test [1] was determined as 1.01 nM.

B2: 586H-210 (bispecific antibody, human IgG1, kappa)
heavy: not shown
light: B1 light
One may read the IC50 as the point on the concentration scale where inhibition reaches its midpoint. B2: the IC50 in test [2] was 26.8 nM. Also, the Kd in test [3] stood at 0.44 nM.

B3: 586H-G4S-210 (bispecific antibody, human IgG1, kappa)
heavy: not shown
light: B1 light
With B3, in [2], the IC50 came out at 29.9 nM. Besides, the Kd in test [3] turned out to be 0.42 nM.

B4: BPC1612 (bispecific antibody, human IgG1, kappa)
heavy: not shown
light: B1 light
Turning to B4, the dissociation constant Kd in test [1] was 0.565 nM.

B5: 586H-ELQLE-210 (bispecific antibody, human IgG1, kappa)
heavy: not shown
light: B1 light
B5: in [4], the binding result was “binds”. Further, the Kd in [3] amounted to 0.43 nM.

B6: 586H-EPKSC-210 (bispecific antibody, human IgG1, kappa)
heavy: not shown
light: B1 light
Take B6: in test [4], the binding result is given as “binds”. Moreover, the Kd in test [3] was found to be 0.43 nM.

B7: 586H-ASTKG-210 (bispecific antibody, human IgG1, kappa)
heavy: not shown
light: B1 light
For the molecule B7, the half-inhibitory concentration (IC50) in [2] turned out to be 27.3 nM. The Kd in [3] stood at 0.4 nM.

B8: PascoH-G4S-474 (bispecific antibody, human IgG1, kappa)
heavy: not shown
light: DIVLTQSPSSLSASVGDRVTITCKASQSVDYDGDSYMNWYQQKPGKAPKLLIYAASNLESGIPSRFSGSGSGTDFTFTISSLQPEDIATYYCQQSNEDPPTFGQGTKVEIKRTVAAPSVFIFPPSDEQLKSGTASVVCLLNNFYPREAKVQWKVDNALQSGNSQESVTEQDSKDSTYSLSSTLTLSKADYEKHKVYACEVTHQGLSSPVTKSFNRGEC
A word on the koff: it is the rate constant with which the complex falls apart. The term kon denotes the rate constant with which the complex forms. With B8, the Kd in test [5] was 0.67 nM; in [6] it was 0.02 nM; in test [9], 0.036 nM; in [10] it was 0.58 nM. In addition, the results for the off-rate constant (koff) in test [5] and in test [6] were 0.00026 s⁻¹ and 8.6e-05 s⁻¹, respectively. In addition, the kon came to 390000 M⁻¹ s⁻¹ in test [5] and 5.1e+06 M⁻¹ s⁻¹ in test [6]. Moreover, the Stoichiometry in [7] came to 1.8; in test [8], 1.9.

B9: PascoH-474 (bispecific antibody, human IgG1, kappa)
heavy: not shown
light: B8 light
notes: also called BPC1000
Consider B9, for which the Kd came out at 0.84 nM in test [5]; 0.02 nM in [6]; 18.6 nM in test [11]; 0.0439 nM in [12]; 0.037 nM in test [9]; 0.71 nM in [10]. Also, the off-rate (koff) in test [5] is 0.00031 s⁻¹; in test [6], 9.4e-05 s⁻¹; in test [11] it was 0.0109 s⁻¹; in [12], 8.14e-05 s⁻¹. Further, the kon worked out at 360000 M⁻¹ s⁻¹ in [5], 4.8e+06 M⁻¹ s⁻¹ in test [6], 586000 M⁻¹ s⁻¹ in test [11] and 1.85e+06 M⁻¹ s⁻¹ in test [12]. The Stoichiometry was determined as 1.8 in test [7] and 1.9 in [8].

B10: PascoL-G4S-474 (bispecific antibody, human IgG1, kappa)
heavy: not shown
light: DIVLTQSPSSLSASVGDRVTITCKASQSVDYDGDSYMNWYQQKPGKAPKLLIYAASNLESGIPSRFSGSGSGTDFTFTISSLQPEDIATYYCQQSNEDPPTFGQGTKVEIKRTVAAPSVFIFPPSDEQLKSGTASVVCLLNNFYPREAKVQWKVDNALQSGNSQESVTEQDSKDSTYSLSSTLTLSKADYEKHKVYACEVTHQGLSSPVTKSFNRGECGGGGSGVQLLESGGGLVQPGGSLRLSCAASGFTFAWYDMGWVRQAPGKGLEWVSSIDWHGEVTYYADSVKGRFTISRDNSKNTLYLQMNSLRAEDTAVYYCATAEDEPGYDYWGQGTLVTVSS
Regarding B10, the dissociation constant Kd is 0.756 nM and 0.621 nM in test [13]; 0.063 nM and 0.052 nM in test [14]; 0.028 nM in test [9]; 1.2 nM in test [10]. For the same molecule, the off-rate (koff) was 0.000425 s⁻¹ and 0.000347 s⁻¹ in test [13]; 0.000135 s⁻¹ and 0.000111 s⁻¹ in test [14]. In addition, the kon in test [13] is 563000 M⁻¹ s⁻¹ and 559000 M⁻¹ s⁻¹; in [14] it was 2.14e+06 M⁻¹ s⁻¹ and 2.13e+06 M⁻¹ s⁻¹. Besides, the Stoichiometry in test [7] and in [8] was 1.8 in each case.

B11: PascoHL-G4S-474 (bispecific antibody, human IgG1, kappa)
heavy: not shown
light: B10 light
Consider B11, for which the Stoichiometry in [7] came out at 1.7; in [8] it was 3.5. In addition, the Kd in test [9] was determined as 0.035 nM; in test [10], 0.87 nM.

B12: PascoL-EPKSC-474 (bispecific antibody, human IgG1, kappa)
heavy: not shown
light: DIVLTQSPSSLSASVGDRVTITCKASQSVDYDGDSYMNWYQQKPGKAPKLLIYAASNLESGIPSRFSGSGSGTDFTFTISSLQPEDIATYYCQQSNEDPPTFGQGTKVEIKRTVAAPSVFIFPPSDEQLKSGTASVVCLLNNFYPREAKVQWKVDNALQSGNSQESVTEQDSKDSTYSLSSTLTLSKADYEKHKVYACEVTHQGLSSPVTKSFNRGECEPKSCDKTHTCPPCPGSGVQLLESGGGLVQPGGSLRLSCAASGFTFAWYDMGWVRQAPGKGLEWVSSIDWHGEVTYYADSVKGRFTISRDNSKNTLYLQMNSLRAEDTAVYYCATAEDEPGYDYWGQGTLVTVSS
In the case of B12, in test [13], the Kd was 0.801 nM and 0.815 nM; the koff was 0.000334 s⁻¹ and 0.000286 s⁻¹; the on-rate constant (kon) is 417000 M⁻¹ s⁻¹ and 351000 M⁻¹ s⁻¹. In test [14], the dissociation constant Kd was 0.139 nM and 0.127 nM; the koff is 0.000258 s⁻¹ and 0.000318 s⁻¹; the kon was 1.86e+06 M⁻¹ s⁻¹ and 2.51e+06 M⁻¹ s⁻¹.

B13: BPC1615 (bispecific antibody, human IgG1, kappa)
heavy: not shown
light: EIVLTQSPATLSLSPGERATLSCRASQNISDYLHWYQQKPGQAPRLLIYYASQSISGIPARFSGSGSGTDFTLTISSLEPEDFAVYYCQNGHSFPLTFGGGTKVEIKRTVAAPSVFIFPPSDEQLKSGTASVVCLLNNFYPREAKVQWKVDNALQSGNSQESVTEQDSKDSTYSLSSTLTLSKADYEKHKVYACEVTHQGLSSPVTKSFNRGEC
notes: also called 656H TVAAPS-210 & 656kappa
As for B13, the Kd in test [1] amounted to 0.085 nM.

B14: anti-CD20 mAb (antibody, human IgG1, kappa, V domains shown)
VH: QVQLQQPGAELVKPGASVKMSCKASGYTFTSYNMHWVKQTPGRGLEWIGAIYPGNGDTSYNQKFKGKATLTADKSSSTAYMQLSSLTSEDSAVYYCARSTYYGGDWYFNVWGAGTLVTVSS
VL: QIVLSQSPAILSASPGEKVTMTCRASSSVSYIHWFQQKPGSSPKPWIYATSNLASGVPVRFSGSGSGTSYSLTISRVEAEDAATYYCQQWTSNPPTFGGGTKLEIKR
notes: also called Rituxan; anti-CD20 control antibody
On to B14, for which the binding result in test [15] is on record as “no binding”.

B15: BPC1803 (bispecific antibody, human IgG1, kappa)
heavy: not shown
light: DIVMTQSPLSLPVTPGEPASISCRSSQSIVQSNGDTYLEWYLQKPGQSPQLLIYRVSNRFSGVPDRFSGSGSGTDFTLKISRVEAEDVGVYYCFQGSHVPYTFGQGTKLEIKRTVAAPSVFIFPPSDEQLKSGTASVVCLLNNFYPREAKVQWKVDNALQSGNSQESVTEQDSKDSTYSLSSTLTLSKADYEKHKVYACEVTHQGLSSPVTKSFNRGEC
notes: anti-VEGF tear lipocalin fusion; also called antiIGF1R Heavy Chain-GS-TLPC
With B15, in the test with recombinant human VEGF, the binding result is recorded as “binds”.

B16: BPC1804 (bispecific antibody, human IgG1, kappa)
heavy: not shown
light: B15 light
notes: anti-VEGF tear lipocalin fusion
Regarding B16, the binding result with recombinant human VEGF is given as “binds”.
